Patent US12679878B2, “CRF2 receptor agonists and their use in therapy” (SANOFI, priority 2020, dated 2026)
Starred links: 1 amine or outer side, 2 acyl side, 3 side chain; linkers in the order of their positions; H or OH if unused. Non-standard residues stand in square brackets, D forms with d. Groups on a side chain read outwards from the residue. No end group written: not given here. *: point of attachment. C20 diacid = O=C(O)CCCCCCCCCCCCCCCCCCC(=O)*; C18 diacid = O=C(O)CCCCCCCCCCCCCCCCC(=O)*; γGlu = O=C(O)[C@H](CCC(=O)[*:2])N[*:1]; AEEA = NCCOCCOCC(=O)O; Aib = CC(C)(N)C(=O)O

T1: anti-target CRF1R receptor (UniProt P34998 24-415, limits assumed)
T1 sequence (looked up): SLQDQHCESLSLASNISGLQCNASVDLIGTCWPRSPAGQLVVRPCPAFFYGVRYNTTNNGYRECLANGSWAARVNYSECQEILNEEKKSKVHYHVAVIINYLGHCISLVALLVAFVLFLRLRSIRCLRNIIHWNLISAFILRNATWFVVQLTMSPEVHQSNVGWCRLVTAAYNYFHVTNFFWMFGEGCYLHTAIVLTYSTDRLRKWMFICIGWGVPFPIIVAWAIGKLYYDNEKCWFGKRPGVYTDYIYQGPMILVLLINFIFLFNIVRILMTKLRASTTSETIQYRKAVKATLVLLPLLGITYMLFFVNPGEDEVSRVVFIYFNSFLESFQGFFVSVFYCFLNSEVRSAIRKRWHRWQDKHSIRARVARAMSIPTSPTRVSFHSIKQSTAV

B1: peptide of SEQ ID NO: 86 (peptide)
peptide: IVLSLDVPIKLK([AEEA-AEEA-γGlu-C18 diacid])QILLKQERQKKQREQAKTNKQILAQV-NH2
modifications: N-terminus assumed
SMILES: CC[C@H](C)[C@H](N)C(=O)N[C@H](C(=O)N[C@@H](CC(C)C)C(=O)N[C@@H](CO)C(=O)N[C@@H](CC(C)C)C(=O)N[C@@H](CC(=O)O)C(=O)N[C@H](C(=O)N1CCC[C@H]1C(=O)N[C@H](C(=O)N[C@@H](CCCCN)C(=O)N[C@@H](CC(C)C)C(=O)N[C@@H](CCCCNC(=O)COCCOCCNC(=O)COCCOCCNC(=O)CC[C@H](NC(=O)CCCCCCCCCCCCCCCCC(=O)O)C(=O)O)C(=O)N[C@@H](CCC(N)=O)C(=O)N[C@H](C(=O)N[C@@H](CC(C)C)C(=O)N[C@@H](CC(C)C)C(=O)N[C@@H](CCCCN)C(=O)N[C@@H](CCC(N)=O)C(=O)N[C@@H](CCC(=O)O)C(=O)N[C@@H](CCCNC(=N)N)C(=O)N[C@@H](CCC(N)=O)C(=O)N[C@@H](CCCCN)C(=O)N[C@@H](CCCCN)C(=O)N[C@@H](CCC(N)=O)C(=O)N[C@@H](CCCNC(=N)N)C(=O)N[C@@H](CCC(=O)O)C(=O)N[C@@H](CCC(N)=O)C(=O)N[C@@H](C)C(=O)N[C@@H](CCCCN)C(=O)N[C@H](C(=O)N[C@@H](CC(N)=O)C(=O)N[C@@H](CCCCN)C(=O)N[C@@H](CCC(N)=O)C(=O)N[C@H](C(=O)N[C@@H](CC(C)C)C(=O)N[C@@H](C)C(=O)N[C@@H](CCC(N)=O)C(=O)N[C@H](C(N)=O)C(C)C)[C@@H](C)CC)[C@@H](C)O)[C@@H](C)CC)[C@@H](C)CC)C(C)C)C(C)C
B2: peptide of SEQ ID NO: 83 (peptide)
peptide: IVLSLD[dV]PIGLK([AEEA-AEEA-γGlu-C18 diacid])QILLKQERQKK[Aib]REQAETNKRILERV-NH2
modifications: N-terminus assumed
SMILES: CC[C@H](C)[C@H](N)C(=O)N[C@H](C(=O)N[C@@H](CC(C)C)C(=O)N[C@@H](CO)C(=O)N[C@@H](CC(C)C)C(=O)N[C@@H](CC(=O)O)C(=O)N[C@@H](C(=O)N1CCC[C@H]1C(=O)N[C@H](C(=O)NCC(=O)N[C@@H](CC(C)C)C(=O)N[C@@H](CCCCNC(=O)COCCOCCNC(=O)COCCOCCNC(=O)CC[C@H](NC(=O)CCCCCCCCCCCCCCCCC(=O)O)C(=O)O)C(=O)N[C@@H](CCC(N)=O)C(=O)N[C@H](C(=O)N[C@@H](CC(C)C)C(=O)N[C@@H](CC(C)C)C(=O)N[C@@H](CCCCN)C(=O)N[C@@H](CCC(N)=O)C(=O)N[C@@H](CCC(=O)O)C(=O)N[C@@H](CCCNC(=N)N)C(=O)N[C@@H](CCC(N)=O)C(=O)N[C@@H](CCCCN)C(=O)N[C@@H](CCCCN)C(=O)NC(C)(C)C(=O)N[C@@H](CCCNC(=N)N)C(=O)N[C@@H](CCC(=O)O)C(=O)N[C@@H](CCC(N)=O)C(=O)N[C@@H](C)C(=O)N[C@@H](CCC(=O)O)C(=O)N[C@H](C(=O)N[C@@H](CC(N)=O)C(=O)N[C@@H](CCCCN)C(=O)N[C@@H](CCCNC(=N)N)C(=O)N[C@H](C(=O)N[C@@H](CC(C)C)C(=O)N[C@@H](CCC(=O)O)C(=O)N[C@@H](CCCNC(=N)N)C(=O)N[C@H](C(N)=O)C(C)C)[C@@H](C)CC)[C@@H](C)O)[C@@H](C)CC)[C@@H](C)CC)C(C)C)C(C)C
B3: peptide of SEQ ID NO: 79 (peptide)
peptide: IVLSLDVPIKLK([AEEA-AEEA-γGlu-C18 diacid])QILLEQEKQK[Aib]QREQAETNKQILAQV-NH2
modifications: N-terminus assumed
SMILES: CC[C@H](C)[C@H](N)C(=O)N[C@H](C(=O)N[C@@H](CC(C)C)C(=O)N[C@@H](CO)C(=O)N[C@@H](CC(C)C)C(=O)N[C@@H](CC(=O)O)C(=O)N[C@H](C(=O)N1CCC[C@H]1C(=O)N[C@H](C(=O)N[C@@H](CCCCN)C(=O)N[C@@H](CC(C)C)C(=O)N[C@@H](CCCCNC(=O)COCCOCCNC(=O)COCCOCCNC(=O)CC[C@H](NC(=O)CCCCCCCCCCCCCCCCC(=O)O)C(=O)O)C(=O)N[C@@H](CCC(N)=O)C(=O)N[C@H](C(=O)N[C@@H](CC(C)C)C(=O)N[C@@H](CC(C)C)C(=O)N[C@@H](CCC(=O)O)C(=O)N[C@@H](CCC(N)=O)C(=O)N[C@@H](CCC(=O)O)C(=O)N[C@@H](CCCCN)C(=O)N[C@@H](CCC(N)=O)C(=O)N[C@@H](CCCCN)C(=O)NC(C)(C)C(=O)N[C@@H](CCC(N)=O)C(=O)N[C@@H](CCCNC(=N)N)C(=O)N[C@@H](CCC(=O)O)C(=O)N[C@@H](CCC(N)=O)C(=O)N[C@@H](C)C(=O)N[C@@H](CCC(=O)O)C(=O)N[C@H](C(=O)N[C@@H](CC(N)=O)C(=O)N[C@@H](CCCCN)C(=O)N[C@@H](CCC(N)=O)C(=O)N[C@H](C(=O)N[C@@H](CC(C)C)C(=O)N[C@@H](C)C(=O)N[C@@H](CCC(N)=O)C(=O)N[C@H](C(N)=O)C(C)C)[C@@H](C)CC)[C@@H](C)O)[C@@H](C)CC)[C@@H](C)CC)C(C)C)C(C)C
B4: peptide of SEQ ID NO: 80 (peptide)
peptide: IVLSLDVPTKLK([AEEA-AEEA-γGlu-C20 diacid])QILLEQERQKKQREQAETN[Aib]QILAQV-NH2
modifications: N-terminus assumed
SMILES: CC[C@H](C)[C@H](N)C(=O)N[C@H](C(=O)N[C@@H](CC(C)C)C(=O)N[C@@H](CO)C(=O)N[C@@H](CC(C)C)C(=O)N[C@@H](CC(=O)O)C(=O)N[C@H](C(=O)N1CCC[C@H]1C(=O)N[C@H](C(=O)N[C@@H](CCCCN)C(=O)N[C@@H](CC(C)C)C(=O)N[C@@H](CCCCNC(=O)COCCOCCNC(=O)COCCOCCNC(=O)CC[C@H](NC(=O)CCCCCCCCCCCCCCCCCCC(=O)O)C(=O)O)C(=O)N[C@@H](CCC(N)=O)C(=O)N[C@H](C(=O)N[C@@H](CC(C)C)C(=O)N[C@@H](CC(C)C)C(=O)N[C@@H](CCC(=O)O)C(=O)N[C@@H](CCC(N)=O)C(=O)N[C@@H](CCC(=O)O)C(=O)N[C@@H](CCCNC(=N)N)C(=O)N[C@@H](CCC(N)=O)C(=O)N[C@@H](CCCCN)C(=O)N[C@@H](CCCCN)C(=O)N[C@@H](CCC(N)=O)C(=O)N[C@@H](CCCNC(=N)N)C(=O)N[C@@H](CCC(=O)O)C(=O)N[C@@H](CCC(N)=O)C(=O)N[C@@H](C)C(=O)N[C@@H](CCC(=O)O)C(=O)N[C@H](C(=O)N[C@@H](CC(N)=O)C(=O)NC(C)(C)C(=O)N[C@@H](CCC(N)=O)C(=O)N[C@H](C(=O)N[C@@H](CC(C)C)C(=O)N[C@@H](C)C(=O)N[C@@H](CCC(N)=O)C(=O)N[C@H](C(N)=O)C(C)C)[C@@H](C)CC)[C@@H](C)O)[C@@H](C)CC)[C@@H](C)O)C(C)C)C(C)C
B5: peptide of SEQ ID NO: 85 (peptide)
peptide: IVLSLDVPIKLK([AEEA-AEEA-γGlu-C18 diacid])QILLKQERQKKQREQAETNKQILAQV-NH2
modifications: N-terminus assumed
SMILES: CC[C@H](C)[C@H](N)C(=O)N[C@H](C(=O)N[C@@H](CC(C)C)C(=O)N[C@@H](CO)C(=O)N[C@@H](CC(C)C)C(=O)N[C@@H](CC(=O)O)C(=O)N[C@H](C(=O)N1CCC[C@H]1C(=O)N[C@H](C(=O)N[C@@H](CCCCN)C(=O)N[C@@H](CC(C)C)C(=O)N[C@@H](CCCCNC(=O)COCCOCCNC(=O)COCCOCCNC(=O)CC[C@H](NC(=O)CCCCCCCCCCCCCCCCC(=O)O)C(=O)O)C(=O)N[C@@H](CCC(N)=O)C(=O)N[C@H](C(=O)N[C@@H](CC(C)C)C(=O)N[C@@H](CC(C)C)C(=O)N[C@@H](CCCCN)C(=O)N[C@@H](CCC(N)=O)C(=O)N[C@@H](CCC(=O)O)C(=O)N[C@@H](CCCNC(=N)N)C(=O)N[C@@H](CCC(N)=O)C(=O)N[C@@H](CCCCN)C(=O)N[C@@H](CCCCN)C(=O)N[C@@H](CCC(N)=O)C(=O)N[C@@H](CCCNC(=N)N)C(=O)N[C@@H](CCC(=O)O)C(=O)N[C@@H](CCC(N)=O)C(=O)N[C@@H](C)C(=O)N[C@@H](CCC(=O)O)C(=O)N[C@H](C(=O)N[C@@H](CC(N)=O)C(=O)N[C@@H](CCCCN)C(=O)N[C@@H](CCC(N)=O)C(=O)N[C@H](C(=O)N[C@@H](CC(C)C)C(=O)N[C@@H](C)C(=O)N[C@@H](CCC(N)=O)C(=O)N[C@H](C(N)=O)C(C)C)[C@@H](C)CC)[C@@H](C)O)[C@@H](C)CC)[C@@H](C)CC)C(C)C)C(C)C

Assays:
[1] = target: T1, anti-target CRF1R receptor; assay: cell-based or functional assay
rat CRF2R α receptor = rat CRF2R α receptor (rat, UniProt P47866 20-411); assay: cell-based or functional assay
rat CRF2R α receptor, sequence (P47866 20-411): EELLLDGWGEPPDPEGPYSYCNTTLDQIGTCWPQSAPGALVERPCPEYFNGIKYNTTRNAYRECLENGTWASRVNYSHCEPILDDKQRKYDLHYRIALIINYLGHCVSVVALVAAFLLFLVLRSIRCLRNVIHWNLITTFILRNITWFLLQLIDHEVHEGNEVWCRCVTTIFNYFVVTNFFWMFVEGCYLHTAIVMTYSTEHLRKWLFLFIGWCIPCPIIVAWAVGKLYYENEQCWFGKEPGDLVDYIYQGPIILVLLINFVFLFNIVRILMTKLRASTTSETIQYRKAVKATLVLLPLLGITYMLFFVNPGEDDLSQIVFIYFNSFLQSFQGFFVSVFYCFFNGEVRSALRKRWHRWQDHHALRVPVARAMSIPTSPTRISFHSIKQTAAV

Binder | EC50[nM] 0% HSA (cAMP, CRF1R-overexpression CHO cells) [1] | Emax (%) (cAMP, CRF1R-overexpression CHO cells) [1] | EC50 [nM], 0% HSA (cAMP, A7R5 cells) (rat CRF2R α receptor)
B1 | > 1000 nM | 15.9% | 0.69 nM
B2 | > 1000 nM | 7.51% | 1.83 nM
B3 | > 1000 nM | 8.74% | 3.99 nM
B4 | > 1000 nM | 12.7% | 5.2 nM
B5 | > 1000 nM | 0.14% | 0.73 nM
